Reference: patent US11440969B2, “Use of human epididymis protein 4 (HE4) for assessing responsiveness of MUC 16-positive cancer treatment” (Genentech, Inc., priority 2016, dated 2022)
“Also recorded” adds a separate entry of the source.

Experiments:
[1] = test system: recombinant human MUC16 extracellular domain; assay: Binding to recombinant human MUC16 extracellular domain
[2] = test system: unresectable pancreatic cancer; assay: Clinical activity of DMUC5754A (RECIST) in pancreatic cancer patients; format: in vivo, human; details: PC patients, 2.4 mg/kg q3w, 10 patients treated
Experimental: (§1) This multicenter, open-label, dose-escalation study was designed to identify the recommended Phase II dose (RP2D) of DMUC5754A in patients with platinum-resistant OC or unresectable pancreatic cancer. In the single-agent dose escalation stage utilizing a 3+3 enrollment scheme, patients were given intravenous DMUC5754A (Genentech Inc.) 0.3-3.2 mg/kg every 3 weeks (q3w) to evaluate the safety, tolerability, and pharmacokinetics of DMUC5754A. Following determination of the maximum tolerated dose (MTD), dose-expansion cohorts were enrolled at the RP2D of 2.4 mg/kg to further characterize the safety and preliminary clinical efficacy of DMUC5754A.
PC patients had histologic documentation of incurable, locally advanced, or metastatic disease for which no standard therapy exists, consisting of unresectable pancreatic ductal adenocarcinoma (i.e., patients with locally advanced or metastatic disease who are not considered eligible for surgical resection with curative intent), including recurrence of previously-resected disease considered unresectable with curative intent. […]
Objective response rate was estimated only for patients with disease that was measurable by RECIST guidelines. Objective response is defined as a complete or partial response, as determined by investigator assessment and confirmed by repeat assessments ≥4 weeks after initial documentation. […]

[3] = test system: MUC16 expressing mouse ovarian and pancreatic cancer xenograft models; assay: Mouse xenograft anti-tumor activity; format: in vivo; details: single agent
[4] = test system: platinum-resistant ovarian cancer; assay: Clinical activity of DMUC5754A (RECIST v1.1) in ovarian cancer patients; format: in vivo, human
Experimental: as §1
Dosing on a weekly (qlw) schedule was also evaluated at the RP2D, employing a 3+3 design to determine the MTD of weekly dosing, followed by a cohort expansion to further characterize the safety and activity of q1w dosing.
OC patients had advanced, epithelial ovarian, primary peritoneal, or fallopian tube cancer that progressed or relapsed within 6 months after the most recent treatment with a platinum-containing chemotherapy regimen and for which no standard therapy exists. […] Progression or relapse from prior platinum-based chemotherapy was documented by RECIST v1.1 or Gynecologic Cancer Intergroup (GCIG) CA125 progression criteria (Vergote et al., 2000). Patients were allowed ≤2 prior chemotherapy regimens.
Objective response rate was estimated only for patients with disease that was measurable by RECIST guidelines. Objective response is defined as a complete or partial response, as determined by investigator assessment and confirmed by repeat assessments ≥4 weeks after initial documentation. Duration of objective response was defined as the time from the initial complete or partial response to the time of disease progression or death.

B1: DMUC5754A: antibody-drug conjugate: humanized IgG1 anti-MUC16 monoclonal antibody and MMAE, linked through protease labile linker maleimidocaproyl-valine-citrulline-p-aminobenzyloxycarbonyl (conjugate, chains of the INN, looked up)
VH: EVQLVESGGGLVQPGGSLRLSCAASGYSITNDYAWNWVRQAPGKGLEWVGYISYSGYTTYNPSLKSRFTISRDTSKNTLYLQMNSLRAEDTAVYYCARWTSGLDYWGQGTLVTVSS
VL: DIQMTQSPSSLSASVGDRVTITCKASDLIHNWLAWYQQKPGKAPKLLIYGATSLETGVPSRFSGSGSGTDFTLTISSLQPEDFATYYCQQYWTTPFTFGQGTKVEIK
modifications: MMAE via mc-vc-PABC linker
[1]
  binding affinity: high affinity
[2]
  radiographic responses: No patients; also recorded: no radiologic responses
[3]
  anti-tumor activity: potent and selective single agent anti-tumor activity
[4]; 0.8 mg/kg q1w (N = 3)
  Best response: Complete response, patients: 0
  Best response: Partial response, patients: 1
  Best response: Progressive disease, patients: 0
  Best response: Stable disease, patients: 2
  Best response: Unable to evaluate, patients: 0
  Duration of response, Median: 3.0 months
  Duration of response, Range: 3.0-3.0 months
[4]; 1.1 mg/kg q1w
  unconfirmed partial responses, patients: 1
[4]; 1.1 mg/kg q1w (N = 7)
  Best response: Complete response, patients: 0
  Best response: Partial response, patients: 1
  Best response: Progressive disease, patients: 3
  Best response: Stable disease, patients: 3
  Best response: Unable to evaluate, patients: 0
  Duration of response, Median: 6.8 months
  Duration of response, Range: 6.8-6.8 months
[4]; 1.2 mg/kg q3w
  minor responses, patients: 1
[4]; 1.4 mg/kg q1w
  minor responses, patients: 1
[4]; 1.4 mg/kg q1w (N = 6)
  Best response: Complete response, patients: 0
  Best response: Partial response, patients: 1
  Best response: Progressive disease, patients: 2
  Best response: Stable disease, patients: 2
  Best response: Unable to evaluate, patients: 1
  Duration of response, Median: 4.6 months
  Duration of response, Range: 4.6-4.6 months
[4]; 1.6 mg/kg q1w
  minor responses, patients: 1
[4]; 2.4 mg/kg q3w
  minor responses, patients: Two
  unconfirmed partial responses, patients: 1
[4]; 2.4 mg/kg q3w (N = 29)
  Best response: Complete response, patients: 1
  Best response: Partial response, patients: 3
  Best response: Progressive disease, patients: 6
  Best response: Stable disease, patients: 17
  Best response: Unable to evaluate, patients: 2
  Duration of response, Median: 4.9 months
  Duration of response, Range: 3.0-11.3 months
[4]; 3.2 mg/kg q3w
  minor responses, patients: 1
[4]; FIG. 4
  average length of time on the study: 103 days
[4]; a patient at 3.2 mg/kg q3w, PD as overall status due to new lesions
  decrease in SLD of target lesions: > 30%
[4]; of the 29 patients at 2.4 mg/kg q3w
  patients on the study ≥105 days: Sixteen
[4]; person, 2.4 mg/kg IV q3w, after two doses
  reduction (MRI), complete response: 100%
[4]; person, 2.4 mg/kg, after 8 doses
  tumor response nadir, reduction: 88%
[4]; person, 2.4 mg/kg, after two doses
  reduction in 3 target lesions (CT), partial response: 37%
[4]; q1w cohorts, at 0.8, 1.1, and 1.4 mg/kg levels
  confirmed responses: 3
